The text below walks through data of patent US20230310634A1, “ANTI-HUMAN VISTA ANTIBODIES AND USE THEREOF” (IMMUNEXT, INC., priority 2020, published 2023).

Assay [1] has as its target CD163 on human cells (human) (UniProt Q86VB7). The experiment in a line: flow cytometry with quantification beads, CD14+ monocytes in human whole blood, n=3 donors. (Flow cytometry measures light scatter and fluorescence of single cells or particles in a stream.)
Assay [2] has the same target. The assay can be described thus: flow cytometry with quantification beads, CD14+ monocytes of human PBMC, n=5 donors (one outlier donor).
For assay [3], the target named is T1, human VISTA on cells (human) (UniProt Q9H7M9).
T1 sequence: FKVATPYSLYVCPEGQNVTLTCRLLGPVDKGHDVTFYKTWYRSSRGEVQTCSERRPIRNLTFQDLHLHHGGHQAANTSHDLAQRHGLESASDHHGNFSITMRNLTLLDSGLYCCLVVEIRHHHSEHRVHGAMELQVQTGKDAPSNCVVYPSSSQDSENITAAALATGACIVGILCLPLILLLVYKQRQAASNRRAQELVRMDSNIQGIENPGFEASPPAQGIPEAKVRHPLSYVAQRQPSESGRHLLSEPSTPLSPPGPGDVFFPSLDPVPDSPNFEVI
The experiment in a line: flow cytometry, AF488-labelled control antibody on human monocytes, MFI normalised to INX200 at 0 min.

Sequence of CD163 on human cells (human) (Q86VB7 42-1156): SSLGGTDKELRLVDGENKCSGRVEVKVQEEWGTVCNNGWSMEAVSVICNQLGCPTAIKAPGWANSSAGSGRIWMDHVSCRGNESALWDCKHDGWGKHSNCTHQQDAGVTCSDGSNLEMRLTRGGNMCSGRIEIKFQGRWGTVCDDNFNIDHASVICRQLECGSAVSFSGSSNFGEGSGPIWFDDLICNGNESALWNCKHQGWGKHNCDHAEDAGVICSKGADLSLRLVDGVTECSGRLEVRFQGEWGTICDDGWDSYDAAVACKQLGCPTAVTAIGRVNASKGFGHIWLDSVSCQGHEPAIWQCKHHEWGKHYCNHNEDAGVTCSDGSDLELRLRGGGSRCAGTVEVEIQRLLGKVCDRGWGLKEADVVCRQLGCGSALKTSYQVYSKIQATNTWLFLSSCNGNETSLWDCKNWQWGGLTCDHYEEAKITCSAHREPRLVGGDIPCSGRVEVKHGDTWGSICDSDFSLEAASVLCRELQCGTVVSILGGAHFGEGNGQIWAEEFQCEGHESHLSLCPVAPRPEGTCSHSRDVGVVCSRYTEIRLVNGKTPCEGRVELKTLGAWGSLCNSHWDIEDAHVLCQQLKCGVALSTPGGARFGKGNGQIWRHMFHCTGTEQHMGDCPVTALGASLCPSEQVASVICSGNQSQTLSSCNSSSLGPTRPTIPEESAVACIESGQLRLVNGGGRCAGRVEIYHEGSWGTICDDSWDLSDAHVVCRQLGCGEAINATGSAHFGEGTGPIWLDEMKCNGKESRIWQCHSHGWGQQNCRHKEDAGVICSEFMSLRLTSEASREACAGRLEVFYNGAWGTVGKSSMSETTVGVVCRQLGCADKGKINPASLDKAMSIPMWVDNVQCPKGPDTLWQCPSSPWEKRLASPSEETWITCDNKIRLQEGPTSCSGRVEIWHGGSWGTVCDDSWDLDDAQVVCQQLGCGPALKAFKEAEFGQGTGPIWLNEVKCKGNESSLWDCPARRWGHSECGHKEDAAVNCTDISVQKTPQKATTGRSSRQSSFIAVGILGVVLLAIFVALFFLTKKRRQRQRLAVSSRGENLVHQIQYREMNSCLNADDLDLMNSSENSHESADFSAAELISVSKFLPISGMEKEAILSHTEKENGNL

As for “CD163 Alexa Fluor 647 clone GHI/61 (antibody)”, in assay [1], the antibody binding capacity (ABC) is 13100 molecules. Further, in assay [2], the antibody binding capacity (ABC) (ABC (molecules per cell)) was found to be 36700. Consider Human IgG1si (antibody), for which the nonspecific signal at 0 min relative to INX200 (% of MFI) in assay [3] came out at 5.9%.
